Earlier results in article PMC9558124.

Molecular target: PEX19 (Homo sapiens) (UniProt P40855)
Chain of UniProt P40855 (P40855 2-296): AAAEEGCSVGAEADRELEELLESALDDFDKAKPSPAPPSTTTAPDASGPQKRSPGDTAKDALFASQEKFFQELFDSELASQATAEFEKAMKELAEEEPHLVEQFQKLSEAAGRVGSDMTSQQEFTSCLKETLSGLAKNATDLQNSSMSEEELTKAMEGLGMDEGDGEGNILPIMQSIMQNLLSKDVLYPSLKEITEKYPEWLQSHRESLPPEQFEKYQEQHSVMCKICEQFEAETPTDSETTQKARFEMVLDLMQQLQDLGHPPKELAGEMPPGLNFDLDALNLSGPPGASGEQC

For PEX3 CTD (from UniProt P56589), the Kd is given as 10 nM.
